Results taken from patent publication USRE47150 (Bayer, dated 2018).

T1: human tissue factor pathway inhibitor (TFPI) (human, UniProt P10646 29-304, limits assumed)
T1 construct: bought; also called hTFPI; human TFPI
T1 sequence (looked up): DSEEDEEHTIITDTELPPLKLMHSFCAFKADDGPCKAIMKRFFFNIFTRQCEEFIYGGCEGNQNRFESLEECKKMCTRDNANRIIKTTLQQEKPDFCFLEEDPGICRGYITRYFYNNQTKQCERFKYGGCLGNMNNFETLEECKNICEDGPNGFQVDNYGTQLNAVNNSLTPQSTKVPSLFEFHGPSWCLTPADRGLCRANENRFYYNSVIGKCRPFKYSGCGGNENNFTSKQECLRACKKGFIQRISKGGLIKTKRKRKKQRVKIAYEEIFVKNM

T2: mouse tissue factor pathway inhibitor (TFPI) (mouse, UniProt O54819 29-289, limits assumed)
T2 construct: bought; also called mTFPI; murine TFPI
T2 sequence (looked up): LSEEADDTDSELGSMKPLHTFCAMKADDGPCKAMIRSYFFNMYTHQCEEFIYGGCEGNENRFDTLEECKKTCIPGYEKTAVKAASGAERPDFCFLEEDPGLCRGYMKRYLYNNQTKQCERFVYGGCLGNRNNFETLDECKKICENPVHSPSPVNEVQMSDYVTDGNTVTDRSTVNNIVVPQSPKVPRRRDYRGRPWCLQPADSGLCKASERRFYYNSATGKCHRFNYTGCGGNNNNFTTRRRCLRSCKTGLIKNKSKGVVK


Key:
[1] = biological target: T1, human tissue factor pathway inhibitor …; assay: competitive ELISA
[2] = biological target: T2, mouse tissue factor pathway inhibitor …; assay: competitive ELISA

Binder | variant/HC_D62R [1] [ratio] | variant/HC_D62R [2] [ratio]
4B7 HC D62Q+H107M+Y112D/LC D33F+N35I (Fab, V domains shown) VH: QVQLQQSGPGLVKPSQTLSLTCAISGDSVSSNSAAWSWIRQSPGRGLEWLGIIYKRSKWYNQYAVSVKSRITINPDTSKNQFSLQLNSVTPEDTAVYYCARWHSDKMWGFDDWGQGTLVTVSS VL: DIVMTQSPLSLPVTPGEPASISCRSSQSLVFSFGITYLNWYLQKPGQSPQLLIYKGSNRASGVPDRFSGSGSGTDFTLKISRVEAEDVGVYYCQQYDSYPLTFGQGTKVEIKR | 22.7 | 31.7
4B7 HC N32D+D62Q+H107M+Y112D/LC F31M+S32R+D33F+N35I+D97T (Fab, V domains shown) VH: QVQLQQSGPGLVKPSQTLSLTCAISGDSVSSDSAAWSWIRQSPGRGLEWLGIIYKRSKWYNQYAVSVKSRITINPDTSKNQFSLQLNSVTPEDTAVYYCARWHSDKMWGFDDWGQGTLVTVSS VL: DIVMTQSPLSLPVTPGEPASISCRSSQSLVMRFGITYLNWYLQKPGQSPQLLIYKGSNRASGVPDRFSGSGSGTDFTLKISRVEAEDVGVYYCQQYTSYPLTFGQGTKVEIKR | 19 | 12
4B7 HC N32D+D62Q+H107M+Y112D/LC S32R+D33F (Fab, V domains shown) VH: QVQLQQSGPGLVKPSQTLSLTCAISGDSVSSDSAAWSWIRQSPGRGLEWLGIIYKRSKWYNQYAVSVKSRITINPDTSKNQFSLQLNSVTPEDTAVYYCARWHSDKMWGFDDWGQGTLVTVSS VL: DIVMTQSPLSLPVTPGEPASISCRSSQSLVFRFGNTYLNWYLQKPGQSPQLLIYKGSNRASGVPDRFSGSGSGTDFTLKISRVEAEDVGVYYCQQYDSYPLTFGQGTKVEIKR | 23.2 | 16.9
4B7 HC D62R+H107M+Y112D/LC D33F+N35I (Fab, V domains shown) VH: QVQLQQSGPGLVKPSQTLSLTCAISGDSVSSNSAAWSWIRQSPGRGLEWLGIIYKRSKWYNRYAVSVKSRITINPDTSKNQFSLQLNSVTPEDTAVYYCARWHSDKMWGFDDWGQGTLVTVSS VL: DIVMTQSPLSLPVTPGEPASISCRSSQSLVFSFGITYLNWYLQKPGQSPQLLIYKGSNRASGVPDRFSGSGSGTDFTLKISRVEAEDVGVYYCQQYDSYPLTFGQGTKVEIKR | 20 | 36.6
4B7 HC D62R+H107M+Y112D/LC N35T+D97T (Fab, V domains shown) VH: QVQLQQSGPGLVKPSQTLSLTCAISGDSVSSNSAAWSWIRQSPGRGLEWLGIIYKRSKWYNRYAVSVKSRITINPDTSKNQFSLQLNSVTPEDTAVYYCARWHSDKMWGFDDWGQGTLVTVSS VL: DIVMTQSPLSLPVTPGEPASISCRSSQSLVFSDGTTYLNWYLQKPGQSPQLLIYKGSNRASGVPDRFSGSGSGTDFTLKISRVEAEDVGVYYCQQYTSYPLTFGQGTKVEIKR | 20.1 | 19.4
4B7 HC D62R+H107M+Y112D/LC F31M+D33F (Fab, V domains shown) VH: QVQLQQSGPGLVKPSQTLSLTCAISGDSVSSNSAAWSWIRQSPGRGLEWLGIIYKRSKWYNRYAVSVKSRITINPDTSKNQFSLQLNSVTPEDTAVYYCARWHSDKMWGFDDWGQGTLVTVSS VL: DIVMTQSPLSLPVTPGEPASISCRSSQSLVMSFGNTYLNWYLQKPGQSPQLLIYKGSNRASGVPDRFSGSGSGTDFTLKISRVEAEDVGVYYCQQYDSYPLTFGQGTKVEIKR | 24.2 | 31.3
4B7 HC N32D+D62K+Y112D/LC S32R+D33F+N35I+D97T (Fab, V domains shown) VH: QVQLQQSGPGLVKPSQTLSLTCAISGDSVSSDSAAWSWIRQSPGRGLEWLGIIYKRSKWYNKYAVSVKSRITINPDTSKNQFSLQLNSVTPEDTAVYYCARWHSDKHWGFDDWGQGTLVTVSS VL: DIVMTQSPLSLPVTPGEPASISCRSSQSLVFRFGITYLNWYLQKPGQSPQLLIYKGSNRASGVPDRFSGSGSGTDFTLKISRVEAEDVGVYYCQQYTSYPLTFGQGTKVEIKR | 22.7 | 38.8
4B7 HC D62R+Y112D/LC S32R+D33F+N35I (Fab, V domains shown) VH: QVQLQQSGPGLVKPSQTLSLTCAISGDSVSSNSAAWSWIRQSPGRGLEWLGIIYKRSKWYNRYAVSVKSRITINPDTSKNQFSLQLNSVTPEDTAVYYCARWHSDKHWGFDDWGQGTLVTVSS VL: DIVMTQSPLSLPVTPGEPASISCRSSQSLVFRFGITYLNWYLQKPGQSPQLLIYKGSNRASGVPDRFSGSGSGTDFTLKISRVEAEDVGVYYCQQYDSYPLTFGQGTKVEIKR | 21.9 | 39.9
4B7 HC D62R+H107M+Y112D/LC F31I+S32R+D33F+N35I+D97T (Fab, V domains shown) VH: QVQLQQSGPGLVKPSQTLSLTCAISGDSVSSNSAAWSWIRQSPGRGLEWLGIIYKRSKWYNRYAVSVKSRITINPDTSKNQFSLQLNSVTPEDTAVYYCARWHSDKMWGFDDWGQGTLVTVSS VL: DIVMTQSPLSLPVTPGEPASISCRSSQSLVIRFGITYLNWYLQKPGQSPQLLIYKGSNRASGVPDRFSGSGSGTDFTLKISRVEAEDVGVYYCQQYTSYPLTFGQGTKVEIKR | 20.4 | 18.2
4B7 HC D62R+H107M+Y112D/LC F31I+D33R+N35I (Fab, V domains shown) VH: QVQLQQSGPGLVKPSQTLSLTCAISGDSVSSNSAAWSWIRQSPGRGLEWLGIIYKRSKWYNRYAVSVKSRITINPDTSKNQFSLQLNSVTPEDTAVYYCARWHSDKMWGFDDWGQGTLVTVSS VL: DIVMTQSPLSLPVTPGEPASISCRSSQSLVISRGITYLNWYLQKPGQSPQLLIYKGSNRASGVPDRFSGSGSGTDFTLKISRVEAEDVGVYYCQQYDSYPLTFGQGTKVEIKR | 22 | 35.4
4B7 HC D62R+H107M+Y112D/LC S32R+D33F+N35I (Fab, V domains shown) VH: QVQLQQSGPGLVKPSQTLSLTCAISGDSVSSNSAAWSWIRQSPGRGLEWLGIIYKRSKWYNRYAVSVKSRITINPDTSKNQFSLQLNSVTPEDTAVYYCARWHSDKMWGFDDWGQGTLVTVSS VL: DIVMTQSPLSLPVTPGEPASISCRSSQSLVFRFGITYLNWYLQKPGQSPQLLIYKGSNRASGVPDRFSGSGSGTDFTLKISRVEAEDVGVYYCQQYDSYPLTFGQGTKVEIKR | 24.1 | 50.3
4B7 HC N32D+D62Q+H107M+Y112D/LC N35I (Fab, V domains shown) VH: QVQLQQSGPGLVKPSQTLSLTCAISGDSVSSDSAAWSWIRQSPGRGLEWLGIIYKRSKWYNQYAVSVKSRITINPDTSKNQFSLQLNSVTPEDTAVYYCARWHSDKMWGFDDWGQGTLVTVSS VL: DIVMTQSPLSLPVTPGEPASISCRSSQSLVFSDGITYLNWYLQKPGQSPQLLIYKGSNRASGVPDRFSGSGSGTDFTLKISRVEAEDVGVYYCQQYDSYPLTFGQGTKVEIKR | 22.2 | 16.4
4B7 HC N32D+D62Q+H107M+Y112D/LC D33R+N35T (Fab, V domains shown) VH: QVQLQQSGPGLVKPSQTLSLTCAISGDSVSSDSAAWSWIRQSPGRGLEWLGIIYKRSKWYNQYAVSVKSRITINPDTSKNQFSLQLNSVTPEDTAVYYCARWHSDKMWGFDDWGQGTLVTVSS VL: DIVMTQSPLSLPVTPGEPASISCRSSQSLVFSRGTTYLNWYLQKPGQSPQLLIYKGSNRASGVPDRFSGSGSGTDFTLKISRVEAEDVGVYYCQQYDSYPLTFGQGTKVEIKR | 23.7 | 18.8
4B7 HC D62Q+Y112D/LC S32R+D33F+N35I (Fab, V domains shown) VH: QVQLQQSGPGLVKPSQTLSLTCAISGDSVSSNSAAWSWIRQSPGRGLEWLGIIYKRSKWYNQYAVSVKSRITINPDTSKNQFSLQLNSVTPEDTAVYYCARWHSDKHWGFDDWGQGTLVTVSS VL: DIVMTQSPLSLPVTPGEPASISCRSSQSLVFRFGITYLNWYLQKPGQSPQLLIYKGSNRASGVPDRFSGSGSGTDFTLKISRVEAEDVGVYYCQQYDSYPLTFGQGTKVEIKR | 23.6 | 38.1
4B7 HC D62R+H107M+Y112D/LC F31M+D33F+N35I (Fab, V domains shown) VH: QVQLQQSGPGLVKPSQTLSLTCAISGDSVSSNSAAWSWIRQSPGRGLEWLGIIYKRSKWYNRYAVSVKSRITINPDTSKNQFSLQLNSVTPEDTAVYYCARWHSDKMWGFDDWGQGTLVTVSS VL: DIVMTQSPLSLPVTPGEPASISCRSSQSLVMSFGITYLNWYLQKPGQSPQLLIYKGSNRASGVPDRFSGSGSGTDFTLKISRVEAEDVGVYYCQQYDSYPLTFGQGTKVEIKR | 30.9 | 47
4B7 HC N32D+D62Q+H107M+Y112D/LC F31I+S32R+D33R+N35I+D97T (Fab, V domains shown) VH: QVQLQQSGPGLVKPSQTLSLTCAISGDSVSSDSAAWSWIRQSPGRGLEWLGIIYKRSKWYNQYAVSVKSRITINPDTSKNQFSLQLNSVTPEDTAVYYCARWHSDKMWGFDDWGQGTLVTVSS VL: DIVMTQSPLSLPVTPGEPASISCRSSQSLVIRRGITYLNWYLQKPGQSPQLLIYKGSNRASGVPDRFSGSGSGTDFTLKISRVEAEDVGVYYCQQYTSYPLTFGQGTKVEIKR | 20.2 | 11.5
4B7 HC D62S+H107M+Y112D/LC S32R+D33F+N35I (Fab, V domains shown) VH: QVQLQQSGPGLVKPSQTLSLTCAISGDSVSSNSAAWSWIRQSPGRGLEWLGIIYKRSKWYNSYAVSVKSRITINPDTSKNQFSLQLNSVTPEDTAVYYCARWHSDKMWGFDDWGQGTLVTVSS VL: DIVMTQSPLSLPVTPGEPASISCRSSQSLVFRFGITYLNWYLQKPGQSPQLLIYKGSNRASGVPDRFSGSGSGTDFTLKISRVEAEDVGVYYCQQYDSYPLTFGQGTKVEIKR | 18.2 | 31.7
4B7 HC N32D+D62Q+H107M+Y112D/LC F31M+D33F+N35T+Y37F (Fab, V domains shown) VH: QVQLQQSGPGLVKPSQTLSLTCAISGDSVSSDSAAWSWIRQSPGRGLEWLGIIYKRSKWYNQYAVSVKSRITINPDTSKNQFSLQLNSVTPEDTAVYYCARWHSDKMWGFDDWGQGTLVTVSS VL: DIVMTQSPLSLPVTPGEPASISCRSSQSLVMSFGTTFLNWYLQKPGQSPQLLIYKGSNRASGVPDRFSGSGSGTDFTLKISRVEAEDVGVYYCQQYDSYPLTFGQGTKVEIKR | 19.4 | 35.3
